Measurements as given in article PMC2874686.

Target: T1, Apaf-1 (human), O14727
T1 chain: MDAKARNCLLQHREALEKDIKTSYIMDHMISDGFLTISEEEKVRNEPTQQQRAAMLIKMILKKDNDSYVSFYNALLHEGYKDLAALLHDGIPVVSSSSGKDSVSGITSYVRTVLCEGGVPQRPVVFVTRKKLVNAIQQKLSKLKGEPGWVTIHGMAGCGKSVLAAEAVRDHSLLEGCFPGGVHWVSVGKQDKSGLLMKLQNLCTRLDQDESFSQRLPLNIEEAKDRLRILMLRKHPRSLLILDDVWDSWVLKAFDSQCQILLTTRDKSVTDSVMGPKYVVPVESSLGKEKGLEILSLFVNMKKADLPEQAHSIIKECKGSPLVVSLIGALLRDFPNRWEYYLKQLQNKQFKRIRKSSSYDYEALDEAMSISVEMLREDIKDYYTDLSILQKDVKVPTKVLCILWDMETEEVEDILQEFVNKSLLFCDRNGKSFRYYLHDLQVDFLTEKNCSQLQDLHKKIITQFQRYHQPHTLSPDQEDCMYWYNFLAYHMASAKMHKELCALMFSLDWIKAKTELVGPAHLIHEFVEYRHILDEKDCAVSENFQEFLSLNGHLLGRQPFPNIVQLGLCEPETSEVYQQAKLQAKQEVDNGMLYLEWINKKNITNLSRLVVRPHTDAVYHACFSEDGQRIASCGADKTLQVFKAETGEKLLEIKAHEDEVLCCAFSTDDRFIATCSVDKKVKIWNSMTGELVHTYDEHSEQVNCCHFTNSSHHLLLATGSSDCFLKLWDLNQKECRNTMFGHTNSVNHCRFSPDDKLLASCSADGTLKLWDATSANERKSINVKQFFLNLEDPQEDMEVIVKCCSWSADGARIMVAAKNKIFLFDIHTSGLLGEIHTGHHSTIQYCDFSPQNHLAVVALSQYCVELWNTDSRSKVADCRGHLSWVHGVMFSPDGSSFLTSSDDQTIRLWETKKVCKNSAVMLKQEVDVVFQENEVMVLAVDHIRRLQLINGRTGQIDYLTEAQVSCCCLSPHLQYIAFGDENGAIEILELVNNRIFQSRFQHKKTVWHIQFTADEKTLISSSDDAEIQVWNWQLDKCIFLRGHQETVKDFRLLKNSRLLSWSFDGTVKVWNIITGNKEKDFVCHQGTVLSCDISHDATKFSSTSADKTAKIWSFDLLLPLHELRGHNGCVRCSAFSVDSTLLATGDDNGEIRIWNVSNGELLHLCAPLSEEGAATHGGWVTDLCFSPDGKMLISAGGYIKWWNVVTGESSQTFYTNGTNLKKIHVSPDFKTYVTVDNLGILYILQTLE
Assay: cryo-EM structure
Conditions: remark: other sources report otherwise

stoichiometry N: 7
B1: Apaf-1, O14727 1-1248 (natural protein)
chain: MDAKARNCLLQHREALEKDIKTSYIMDHMISDGFLTISEEEKVRNEPTQQQRAAMLIKMILKKDNDSYVSFYNALLHEGYKDLAALLHDGIPVVSSSSGKDSVSGITSYVRTVLCEGGVPQRPVVFVTRKKLVNAIQQKLSKLKGEPGWVTIHGMAGCGKSVLAAEAVRDHSLLEGCFPGGVHWVSVGKQDKSGLLMKLQNLCTRLDQDESFSQRLPLNIEEAKDRLRILMLRKHPRSLLILDDVWDSWVLKAFDSQCQILLTTRDKSVTDSVMGPKYVVPVESSLGKEKGLEILSLFVNMKKADLPEQAHSIIKECKGSPLVVSLIGALLRDFPNRWEYYLKQLQNKQFKRIRKSSSYDYEALDEAMSISVEMLREDIKDYYTDLSILQKDVKVPTKVLCILWDMETEEVEDILQEFVNKSLLFCDRNGKSFRYYLHDLQVDFLTEKNCSQLQDLHKKIITQFQRYHQPHTLSPDQEDCMYWYNFLAYHMASAKMHKELCALMFSLDWIKAKTELVGPAHLIHEFVEYRHILDEKDCAVSENFQEFLSLNGHLLGRQPFPNIVQLGLCEPETSEVYQQAKLQAKQEVDNGMLYLEWINKKNITNLSRLVVRPHTDAVYHACFSEDGQRIASCGADKTLQVFKAETGEKLLEIKAHEDEVLCCAFSTDDRFIATCSVDKKVKIWNSMTGELVHTYDEHSEQVNCCHFTNSSHHLLLATGSSDCFLKLWDLNQKECRNTMFGHTNSVNHCRFSPDDKLLASCSADGTLKLWDATSANERKSINVKQFFLNLEDPQEDMEVIVKCCSWSADGARIMVAAKNKIFLFDIHTSGLLGEIHTGHHSTIQYCDFSPQNHLAVVALSQYCVELWNTDSRSKVADCRGHLSWVHGVMFSPDGSSFLTSSDDQTIRLWETKKVCKNSAVMLKQEVDVVFQENEVMVLAVDHIRRLQLINGRTGQIDYLTEAQVSCCCLSPHLQYIAFGDENGAIEILELVNNRIFQSRFQHKKTVWHIQFTADEKTLISSSDDAEIQVWNWQLDKCIFLRGHQETVKDFRLLKNSRLLSWSFDGTVKVWNIITGNKEKDFVCHQGTVLSCDISHDATKFSSTSADKTAKIWSFDLLLPLHELRGHNGCVRCSAFSVDSTLLATGDDNGEIRIWNVSNGELLHLCAPLSEEGAATHGGWVTDLCFSPDGKMLISAGGYIKWWNVVTGESSQTFYTNGTNLKKIHVSPDFKTYVTVDNLGILYILQTLE
